Data as given in the Immune Epitope Database (IEDB).

Assays:
Assay in all cases: IEDB peptide-MHC binding, purified MHC/competitive/radioactivity; ≥ and ≤ were set here for values at or beyond the usual limits of such assays
[1] = target: HLA-A*02:02
[2] = target: HLA-A*68:02
[3] = target: HLA-A*02:03
[4] = target: HLA-A*02:06
[5] = target: HLA-A*02:01
[6] = source organism: Influenza A virus
[7] = source organism: Vaccinia virus WR
[8] = source organism: Hepacivirus hominis
[9] = source organism: Mammarenavirus brazilense

| Sequence | IC50 [1, 7] | IC50 [2, 7] | IC50 [3, 7] | IC50 [4, 7] | IC50 [5, 7] | further results |
| --- | --- | --- | --- | --- | --- | --- |
| SSLENFRAYV | – | – | – | – | – | IC50 [1, 6]: 204 nM; IC50 [2, 6]: 24 nM; IC50 [3, 6]: 1140 nM; IC50 [4, 6]: 44 nM; IC50 [5, 6]: 172 nM |
| NVIEDITFL | 146 nM | 31 nM | 300 nM | 26 nM | 304 nM | – |
| SAFNDDGIYI | 35 nM | 6.6 nM | 68 nM | 41 nM | 35 nM | – |
| KLLIAILGPL | – | – | – | – | – | IC50 [1, 8]: 12 nM; IC50 [2, 8]: 4230 nM; IC50 [3, 8]: 5.9 nM; IC50 [4, 8]: 12 nM; IC50 [5, 8]: 67 nM |
| TLGVYDYLV | – | – | – | – | – | IC50 ([1]; source organism: SARS-CoV1): 0.25 nM; IC50 ([2]; source organism: SARS-CoV1): 157 nM; IC50 ([3]; source organism: SARS-CoV1): 936 nM; IC50 ([4]; source organism: SARS-CoV1): 75 nM; IC50 ([5]; source organism: SARS-CoV1): 2.7 nM |
| FLAHLQWFA | – | – | – | – | – | IC50 ([1]; source organism: SARS-CoV1): 0.1 nM; IC50 ([2]; source organism: SARS-CoV1): 17 nM; IC50 ([3]; source organism: SARS-CoV1): 0.21 nM; IC50 ([4]; source organism: SARS-CoV1): 0.57 nM; IC50 ([5]; source organism: SARS-CoV1): 0.1 nM |
| LLAPITAYA | – | – | – | – | – | IC50 [1, 8]: 0.27 nM; IC50 [2, 8]: 1.5 nM; IC50 [3, 8]: 0.61 nM; IC50 [4, 8]: 5.3 nM; IC50 [5, 8]: 2.9 nM |
| KVEKYLPEV | 1050 nM | 1520 nM | 171 nM | 116 nM | 17 nM | – |
| TLIQYRQQL | 128 nM | 725 nM | 410 nM | 1880 nM | 134 nM | – |
| LVFLWLLWPV | – | – | – | – | – | IC50 ([1]; source organism: SARS-CoV1): 0.93 nM; IC50 ([2]; source organism: SARS-CoV1): 18 nM; IC50 ([3]; source organism: SARS-CoV1): 1.9 nM; IC50 ([4]; source organism: SARS-CoV1): 0.56 nM; IC50 ([5]; source organism: SARS-CoV1): 4.9 nM |
| CTMERTNDL | 36 nM | 103 nM | 25 nM | 96 nM | 345 nM | – |
| KLPTLFGRGV | 190 nM | 509 nM | 33 nM | 53 nM | 273 nM | – |
| FMRDEVSFSV | – | – | – | – | – | IC50 [1, 8]: 2.2 nM; IC50 [2, 8]: 2950 nM; IC50 [3, 8]: 2.7 nM; IC50 [4, 8]: 10 nM; IC50 [5, 8]: 4 nM |
| RTNDLTALL | 3.7 nM | 13 nM | 7.2 nM | 119 nM | 357 nM | – |
| IMSMMNITRL | 62 nM | 119 nM | 106 nM | 585 nM | 284 nM | – |
| LLSCISVPV | – | – | – | – | – | IC50 [1, 8]: 1.4 nM; IC50 [2, 8]: 15 nM; IC50 [3, 8]: 4.7 nM; IC50 [4, 8]: 17 nM; IC50 [5, 8]: 2.5 nM |
| HLMSDNPKA | 57 nM | 1100 nM | 279 nM | 523 nM | 45 nM | – |
| LLIAITAFT | – | – | – | – | – | IC50 [1, 8]: 37 nM; IC50 [2, 8]: 1050 nM; IC50 [3, 8]: 12 nM; IC50 [4, 8]: 461 nM; IC50 [5, 8]: 174 nM |

| Sequence | IC50 [1, 7] | IC50 [2, 7] | IC50 [3, 7] | IC50 [4, 7] | IC50 [5, 7] | further results |
| --- | --- | --- | --- | --- | --- | --- |
| AAIDRQVSV | 933 nM | 1440 nM | 19 nM | 15 nM | 1470 nM | – |
| IISSKQYPA | 164 nM | 3580 nM | 612 nM | 1160 nM | 410 nM | – |
| NMLRIMASL | – | – | – | – | – | IC50 ([1]; source organism: SARS-CoV1): 3.4 nM; IC50 ([2]; source organism: SARS-CoV1): 1310 nM; IC50 ([3]; source organism: SARS-CoV1): 38 nM; IC50 ([4]; source organism: SARS-CoV1): 50 nM; IC50 ([5]; source organism: SARS-CoV1): 68 nM |
| IALALEQYGI | 980 nM | 2900 nM | 4920 nM | 1130 nM | 3020 nM | – |
| QIMECSRML | 620 nM | 1400 nM | 1380 nM | 948 nM | 103 nM | – |
| LTTVFIKYV | 3640 nM | 330 nM | 676 nM | 130 nM | 1060 nM | – |
| LVASSGTLEFI | – | – | – | – | – | IC50 [1, 6]: 153 nM; IC50 [2, 6]: 199 nM; IC50 [3, 6]: 697 nM; IC50 [4, 6]: 305 nM; IC50 [5, 6]: 3730 nM |
| TSLGLLYTV | – | – | – | – | – | IC50 [1, 9]: 934 nM; IC50 [2, 9]: 13 nM; IC50 [3, 9]: 405 nM; IC50 [4, 9]: 4.2 nM; IC50 [5, 9]: 115 nM |
| TSFFYRYGFV | – | – | – | – | – | IC50 [1, 6]: 1100 nM; IC50 [2, 6]: 0.0096 nM; IC50 [3, 6]: 451 nM; IC50 [4, 6]: 851 nM; IC50 [5, 6]: 1100 nM |
| FISSFLLPLT | 39 nM | 982 nM | 44 nM | 51 nM | 62 nM | – |
| FLNGSCGSV | – | – | – | – | – | IC50 ([1]; source organism: SARS-CoV1): 1 nM; IC50 ([2]; source organism: SARS-CoV1): 318 nM; IC50 ([3]; source organism: SARS-CoV1): 0.57 nM; IC50 ([4]; source organism: SARS-CoV1): 64 nM; IC50 ([5]; source organism: SARS-CoV1): 5.8 nM |
| KIMEIVSHL | 79 nM | 1070 nM | 10 nM | 30 nM | 76 nM | – |
| VMYAFTTPL | 0.57 nM | 112 nM | 1.3 nM | 5.7 nM | 0.87 nM | – |
| LMIGNYFSGV | 0.13 nM | 160 nM | 0.093 nM | 0.13 nM | 0.27 nM | – |
| AAITLVVISV | 501 nM | 715 nM | 246 nM | 27 nM | 369 nM | – |
| KLYGYASLTT | 1.9 nM | 1740 nM | 0.26 nM | 34 nM | 19 nM | – |
| RAFIYSIMET | 81 nM | 852 nM | 70 nM | 578 nM | 659 nM | – |
